Target: HLA‐DR1 (HLA‐DRA1*01:01/HLA‐DRB*01:01) complexed with the HA_(306‐318) peptide, refolded from E. coli (human | )
Test: SPR
Conditions: both partners purified

B1: LAG‐3:Fc fusion protein (four extracellular domains of LAG‐3 and the Fc domain of IgG) (Fc fusion)
chain: LQPGAEVPVVWAQEGAPAQLPCSPTIPLQDLSLLRRAGVTWQHQPDSGPPAAAPGHPLAPGPHPAAPSSWGPRPRRYTVLSVGPGGLRSGRLPLQPRVQLDERGRQRGDFSLWLRPARRADAGEYRAAVHLRDRALSCRLRLRLGQASMTASPPGSLRASDWVILNCSFSRPDRPASVHWFRNRGQGRVPVRESPHHHLAESFLFLPQVSPMDSGPWGCILTYRDGFNVSIMYNLTVLGLEPPTPLTVYAGAGSRVGLPCRLPAGVGTRSFLTAKWTPPGGGPDLLVTGDNGDFTLRLEDVSQAQAGTYTCHIHLQEQQLNATVTLAIITVTPKSFGSPGSLGKLLCEVTPVSGQERFVWSSLDTPSQRSFSGPWLEAQEAQLLSQPWQCQLYQGERLLGAAVYFTELSSPGAQRSGRAPGALPAGHL
With B1 the Kd was 13.1 µM.

Source: article PMC8101287, “Molecular characterization of HLA class II binding to the LAG‐3 T cell co‐inhibitory receptor” (European Journal of Immunology, 2020)
